In paper PMC2535662, “Identification of COUP-TFII Orphan Nuclear Receptor as a Retinoic Acid–Activated Receptor” (PLoS Biology, 2008):
Where no end group is shown, it is not given here.

What was measured:
COUP-TFII = biological target: T1, COUP-TFII (Homo sapiens, UniProt P24468, C174S); test: AlphaScreen ligand-dependent coactivator peptide recruitment to purified LBD; also NGFI-A luciferase reporter in COS-7 cells; assay type: binding
T1 construct: gene NR2F2; LBD (residues 173–414 with C174S mutation), 6X His-GST fusion protein
T1 sequence (P24468 173-414 C174S): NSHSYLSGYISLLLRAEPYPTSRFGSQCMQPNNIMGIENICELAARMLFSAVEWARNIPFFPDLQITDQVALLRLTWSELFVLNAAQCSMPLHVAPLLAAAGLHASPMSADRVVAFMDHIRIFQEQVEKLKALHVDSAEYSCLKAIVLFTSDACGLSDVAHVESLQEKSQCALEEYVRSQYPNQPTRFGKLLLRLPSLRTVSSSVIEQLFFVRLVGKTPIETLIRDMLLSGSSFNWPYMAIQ

[1] = biological target: full-length COUP-TFII (mouse expression plasmid) (mouse) (UniProt P43135)
[2] = biological target: T2, 6X His-GST-COUP-TFII LBD fusion protein (human, UniProt P24468 173-414, C174S); test: AlphaScreen or HTRF; approximately 0.4 μM 6X His-GST receptor LBD and 0.1 μM biotinylated peptide, 20 μg/ml donor and acceptor beads; 50 mM MOPS, 50 mM NaF, 50 mM CHAPS, 0.1 mg/ml bovine serum albumin, pH 7.4; with 50 μM 9-cis-retinoic acid; conditions: both partners purified
T2 construct: The limits and C174S come from the protein preparation paragraph; also called receptor LBD; source: E. coli BL21 (DE3), purified as a 6X His-GST fusion protein; not shown: 6x Histidine, N-terminal, kept; GST, N-terminal, kept
T2 sequence (looked up): T1 sequence (P24468 173-414 C174S)

[3] = biological target: COUP-TFII L364A/L365A double mutant (mouse) (UniProt P43135)
[4] = biological target: the molecule itself; test: crystal structure; ligand-free LBD, no cofactor peptide; hanging drops at 20 °C, well buffer 1.3 M or 1.5 M imidazole pH 5.6 and 1% Pluronic F68; space group C2, one LBD per asymmetric unit, symmetric dimer through crystal packing

## CC1=C(/C=C/C(C)=C/C=C/C(C)=C/C(=O)O)C(C)(C)CCC1 [ATRA, all-trans-retinoic acid]
COUP-TFII
  EC50: 26 µM

## CC1=C(/C=C/C(C)=C\C=C\C(C)=C\C(=O)O)C(C)(C)CCC1 [9cRA, 9-cis-retinoic acid]
COUP-TFII
  EC50: 17 µM

## SRC-3 (wild type) (from UniProt Q9Y6Q9 1-1424) (natural protein)
[1]
  NGFI-A promoter luciferase reporter in COS-7 cells, COUP-TFII cotransfected with SRC-3, relative to COUP-TFII alone: > 2 fold

## AENQRGPLESKGHKKLLQLLTSS (also: biotinylated, position not given here) [biotinylated SRC3–1 peptide]
[2]
  binding result: binds

B1: COUP-TFII L364A/L365A double mutant (natural protein)
chain: MAMVVSTWRDPQDEVPGSQGSQASQAPPVPGPPPGAPHTPQTPGQGGPASTPAQTAAGGQGGPGGPGSDKQQQQQHIECVVCGDKSSGKHYGQFTCEGCKSFFKRSVRRNLSYTCRANRNCPIDQHHRNQCQYCRLKKCLKVGMRREAVQRGRMPPTQPTHGQFALTNGDPLNCHSYLSGYISLLLRAEPYPTSRFGSQCMQPNNIMGIENICELAARMLFSAVEWARNIPFFPDLQITDQVALLRLTWSELFVLNAAQCSMPLHVAPLLAAAGLHASPMSADRVVAFMDHIRIFQEQVEKLKALHVDSAEYSCLKAIVLFTSDACGLSDVAHVESLQEKSQCALEEYVRSQYPNQPTRFGKLAARLPSLRTVSSSVIEQLFFVRLVGKTPIETLIRDMLLSGSSFNWPYMAIQ
[3]
  activation of the NGFI-A promoter luciferase reporter in COS-7 cells, relative to wild-type COUP-TFII: 20%

B2: human COUP-TFII ligand-binding domain (residues 173–414, C174S), tag cleaved (domain or fragment, UniProt P24468 173-414, looked up)
chain: T1 sequence (P24468 173-414 C174S)
notes: Ligand-free; One LBD per asymmetric unit; The model lacks 13 residues between α1 and α3, 17 residues between α5 and α6, and the C-terminal seven residues; also called COUP-TFII LBD; apo-COUP-TFII; source: E. coli BL21 (DE3), purified (glutathione-sepharose, thrombin cleavage, Ni2+ chelating sepharose); not shown: 6x Histidine, N-terminal, cleaved; GST, N-terminal, cleaved
[4]
  binding result: binds
